In publication PMC2679190:

What follows are substances tested against MyBPC1 (Myosin Binding Protein C1) (UniProt Q00872).
UniProt Q00872, sequence (Q00872 whole entry): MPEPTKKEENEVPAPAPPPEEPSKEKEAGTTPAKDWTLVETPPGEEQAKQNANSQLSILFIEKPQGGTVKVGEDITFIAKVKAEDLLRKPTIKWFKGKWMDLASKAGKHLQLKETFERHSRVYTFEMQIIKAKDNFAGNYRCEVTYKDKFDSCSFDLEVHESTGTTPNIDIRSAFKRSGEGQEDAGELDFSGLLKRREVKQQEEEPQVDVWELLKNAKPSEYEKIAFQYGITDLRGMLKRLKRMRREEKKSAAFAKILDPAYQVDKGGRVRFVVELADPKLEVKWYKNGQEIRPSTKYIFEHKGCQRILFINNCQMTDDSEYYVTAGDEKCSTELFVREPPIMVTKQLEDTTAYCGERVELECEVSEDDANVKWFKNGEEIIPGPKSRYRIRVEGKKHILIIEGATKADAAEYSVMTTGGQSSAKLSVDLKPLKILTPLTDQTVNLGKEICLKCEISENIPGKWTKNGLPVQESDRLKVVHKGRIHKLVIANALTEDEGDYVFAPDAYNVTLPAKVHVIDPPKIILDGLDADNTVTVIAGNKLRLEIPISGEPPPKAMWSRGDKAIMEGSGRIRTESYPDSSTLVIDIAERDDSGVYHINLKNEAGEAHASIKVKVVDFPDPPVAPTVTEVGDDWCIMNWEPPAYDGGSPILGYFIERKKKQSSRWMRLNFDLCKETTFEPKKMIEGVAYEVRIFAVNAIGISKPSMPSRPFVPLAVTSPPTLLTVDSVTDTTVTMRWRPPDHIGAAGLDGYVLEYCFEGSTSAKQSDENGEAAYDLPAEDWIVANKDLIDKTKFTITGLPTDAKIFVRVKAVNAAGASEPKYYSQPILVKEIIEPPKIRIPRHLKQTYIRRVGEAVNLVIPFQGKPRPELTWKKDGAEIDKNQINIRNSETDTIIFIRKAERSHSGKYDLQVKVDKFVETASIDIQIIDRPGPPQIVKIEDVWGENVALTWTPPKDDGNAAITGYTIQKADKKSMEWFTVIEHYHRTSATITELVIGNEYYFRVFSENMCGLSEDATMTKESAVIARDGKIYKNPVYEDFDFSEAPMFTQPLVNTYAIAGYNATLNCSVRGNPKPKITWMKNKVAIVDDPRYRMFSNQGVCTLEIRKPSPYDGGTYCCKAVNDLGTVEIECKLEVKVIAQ

Substance	rescue of HA-MyBPC1 from proteasome degradation in co-transfected HEK293T cells (MyBPC1 level by western blot, rescue by wild-type USP25m = 1) [fold]
USP25m ΔUBA (Δ19-58 aa, inclusive) (enzyme)	3
USP25m ΔUBA-UIM1-UIM2 (Δ19-141 aa, inclusive) (enzyme)	< 8
USP25m ΔUIM1 (Δ96-115 aa, inclusive) (enzyme)	2
